Laboratory results published in publication doi:10.1101/2023.04.03.535215.

Molecular target: SARS-CoV-2 S protein receptor-binding domain (SARS-CoV-2) (UniProt P0DTC2)
Experiment: ELISA

## Native human surfactant protein A (from UniProt Q8IWL2 21-248) (natural protein)
  percent decrease of binding in 10 mM EDTA: 59%
